For 14 molecules, Kd and Ka results are on record in PMC7939381 (2020).

The labels stand for the following.
B1: 14-3-3η, full length, N-terminally His6-tagged (natural protein)
chain: MGDREQLLQRARLAEQAERYDDMASAMKAVTELNEPLSNEDRNLLSVAYKNVVGARRSSWRVISSIEQKTMADGNEKKLEKVKAYREKIEKELETVCNDVLSLLDKFLIKNCNDFQYESKVFYLKMKGDYYRYLAEVASGEKKNSVVEASEAAYKEAFEISKEQMQPTHPIRLGLALNFSVFYYEIQNAPEQACLLAKQAFDDAIAELDTLNEDSYKDSTLIMQLLRDNLTLWTSDQQDEEAGEGN
B4: 14-3-3β/α, full length, N-terminally His6-tagged (natural protein)
chain: MTMDKSELVQKAKLAEQAERYDDMAAAMKAVTEQGHELSNEERNLLSVAYKNVVGARRSSWRVISSIEQKTERNEKKQQMGKEYREKIEAELQDICNDVLELLDKYLIPNATQPESKVFYLKMKGDYFRYLSEVASGDNKQTTVSNSQQAYQEAFEISKKEMQPTHPIRLGLALNFSVFYYEILNSPEKACSLAKTAFDEAIAELDTLNEESYKDSTLIMQLLRDNLTLWTSENQGDEGDAGEGEN
B5: 14-3-3σ, full length, N-terminally His6-tagged (natural protein)
chain: MERASLIQKAKLAEQAERYEDMAAFMKGAVEKGEELSCEERNLLSVAYKNVVGGQRAAWRVLSSIEQKSNEEGSEEKGPEVREYREKVETELQGVCDTVLGLLDSHLIKEAGDAESRVFYLKMKGDYYRYLAEVATGDDKKRIIDSARSAYQEAMDISKKEMPPTNPIRLGLALNFSVFHYEIANSPEEAISLAKTTFDEAMADLHTLSEDSYKDSTLIMQLLRDNLTLWTADNAGEEGGEAPQEPQS

The target of experiment [1] is peptide 13. Kind of experiment: FP.
Experiment [2] deals with peptide 13. The experiment in a line: FP. This is another data set of the same source.
The target in experiment [3] is B5. The experiment in a line: FP.
For experiment [4], the target named is B4. Kind of experiment: FP.
Experiment [5] concerns the target B1. Kind of experiment: FP.
For experiment [6], the target named is B4. The experiment in a line: FP.
Experiment [7] deals with B1. Kind of experiment: ITC; replicate A.
Experiment [8] addresses B1. The experiment in a line: ITC; replicate B.
Experiment [9] addresses B1. Kind of experiment: ITC.
Experiment [10] deals with T1, 14-3-3ζ, full length, N-terminally His6-tagged (human, UniProt P63104 1-245).
T1 chain: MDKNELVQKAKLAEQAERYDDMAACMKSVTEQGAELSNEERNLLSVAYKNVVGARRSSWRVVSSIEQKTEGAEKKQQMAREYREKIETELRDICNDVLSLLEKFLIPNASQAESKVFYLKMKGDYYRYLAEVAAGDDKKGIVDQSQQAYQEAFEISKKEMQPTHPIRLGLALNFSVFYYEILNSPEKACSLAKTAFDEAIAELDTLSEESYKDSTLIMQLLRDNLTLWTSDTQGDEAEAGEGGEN
Kind of experiment: FP.

Experiment [11] addresses T2, 14-3-3γ, full length, N-terminally His6-tagged (human, UniProt P61981 1-247).
T2 chain: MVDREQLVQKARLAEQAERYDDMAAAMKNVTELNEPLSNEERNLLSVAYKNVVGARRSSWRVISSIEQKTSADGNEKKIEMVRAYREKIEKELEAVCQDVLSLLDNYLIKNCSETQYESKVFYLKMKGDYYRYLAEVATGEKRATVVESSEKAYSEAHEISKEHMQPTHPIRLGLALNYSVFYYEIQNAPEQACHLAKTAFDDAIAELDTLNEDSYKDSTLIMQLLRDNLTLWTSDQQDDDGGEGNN
The experiment in a line: FP.

The target of experiment [12] is T3, 14-3-3ε, full length, N-terminally His6-tagged (human, UniProt P62258 1-255).
T3 chain: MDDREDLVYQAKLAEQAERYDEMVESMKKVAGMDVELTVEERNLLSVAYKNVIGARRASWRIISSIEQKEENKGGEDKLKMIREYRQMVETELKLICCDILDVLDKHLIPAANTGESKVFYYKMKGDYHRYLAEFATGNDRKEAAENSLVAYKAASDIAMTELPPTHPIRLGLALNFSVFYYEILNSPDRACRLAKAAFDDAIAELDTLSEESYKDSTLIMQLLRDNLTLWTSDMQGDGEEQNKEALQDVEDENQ
Kind of experiment: FP.

The target in experiment [13] is B5. The experiment in a line: FP.
In experiment [14] the target is T4, 14-3-3θ, full length, N-terminally His6-tagged (human, UniProt P27348 1-245).
T4 chain: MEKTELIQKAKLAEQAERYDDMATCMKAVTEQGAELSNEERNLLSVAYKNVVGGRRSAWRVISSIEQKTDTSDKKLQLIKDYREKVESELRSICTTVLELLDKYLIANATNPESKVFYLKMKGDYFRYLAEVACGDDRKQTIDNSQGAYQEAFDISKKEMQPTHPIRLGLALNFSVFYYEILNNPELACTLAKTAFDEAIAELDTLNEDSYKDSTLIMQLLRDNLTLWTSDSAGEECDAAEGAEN
The experiment in a line: FP.

Experiment [15] concerns the target B1. Kind of experiment: FP.
Experiment [16] has as its target B4. The experiment in a line: FP.
Experiment [17] deals with B1. The experiment in a line: FP.

Several values for one entry are separate records, joined by “and”; a condition that tells them apart may be missing. Equal values may be shown once. Read-outs that look alike come from different tables or passages of the source. Primed or numbered codes have the meaning given here. Where no end group is shown, it is not given here. [ ]: non-standard residue; d: D form. The star is where a group is joined. PEG2′ = short PEG linker placed between the N-terminal FITC label and the peptide; FITC = O=C1OC2(c3ccc(O)cc3Oc3cc(O)ccc32)c2ccc(NC(=S)*)cc21; pT = C[C@@H](OP(=O)(O)O)[C@H](N)C(=O)O; pS = N[C@@H](COP(=O)(O)O)C(=O)O A value given as a limit tells only on which side of the number the result lay.

On to B1, for which the Kd in experiment [1] and in experiment [2] was more than 83 µM throughout.

B2: fluorescently labeled peptide 11, APN 36–73 pSer43 pThr63 (peptide)
peptide: EKNKNAN[pS]SPVASTTPSASATTNPASA[pT]TLDQSKAWNR
modifications: not fully specified (N-terminus); also: FITC via PEG2 linker, site not given here
With B2, the Kd in [3] stood at 1.8 µM; in [4], 0.11 µM.

B3: fluorescently labeled peptide 7, APN 36–73 pSer43 (peptide)
peptide: EKNKNAN[pS]SPVASTTPSASATTNPASATTLDQSKAWNR
modifications: not fully specified (N-terminus); also: FITC via PEG2 linker, site not given here
B3: the Kd in experiment [3] was more than 167 µM; in experiment [4], 60 µM.

Consider PASATTLDQ (also: one phosphorylated Ser/Thr within Ser61–Thr64) [peptide 16, monophosphorylated APN 9-mer (noncanonical site of peptide 12)], for which the Kd in experiment [5] is more than 167 µM; in experiment [6], more than 333 µM.

For NKNAN[pS]SPV [peptide 1, APN 38–46 pSer43, as used in ITC], the Kd stood at 2.48 µM in experiment [7] and 2.01 µM in experiment [8]. In addition, the Ka in experiment [9] is 403000 M⁻¹ and 488000 M⁻¹ and 497000 M⁻¹.

As for {FITC-PEG2′}-NKNAN[pS]SPV [FITC-labeled peptide 1, APN 38–46 pSer43], the Kd came out at 1.2 µM in experiment [10]; 1.16 µM in experiment [11]; 1.1 µM in experiment [12]; 3.9 µM in experiment [13]; 2 µM in [14]; 0.21 µM in experiment [15]. The Kd came out at 0.7 µM in experiment [16], 3.5 µM in experiment [3] and 0.71 µM in [4].

With {FITC-PEG2′}-EKNKNAN[pS]SPVASTTPSASATTNPASATTLDQSKAWNR (also: second phosphorylated Ser/Thr, site not given here) [fluorescently labeled peptide 9, APN 36–73, bis-phosphorylated], the Kd is 15 µM in [5], more than 167 µM in experiment [3], 15 µM in experiment [17] and 23 µM in experiment [4].

Turning to B4, the Kd in experiment [2] is more than 167 µM.

Take {FITC-PEG2′}-EKNKNAN[pS]SPVASTTPSASATTNPASATTLDQSKAWNR (also: second phosphorylation within Ser61–Thr64, site not given here) [fluorescently labeled peptide 10, APN 36–73, bis-phosphorylated]: the Kd in experiment [5] came out at 0.42 µM; in experiment [3], 6.6 µM; in experiment [17] it was 0.42 µM; in [4], 0.88 µM.

For the molecule {FITC-PEG2′}-EKNKNAN[pS]SPVASTTPSASATTNPASATTLDQSKAWNR (also: second phosphorylation within Ser61–Thr64, site not given here) [fluorescently labeled peptide 12, APN 36–73, bis-phosphorylated], the Kd was 0.18 µM in experiment [5], 4.1 µM in experiment [3], 0.18 µM in experiment [17] and 0.45 µM in experiment [4].

In the case of NPASA[pT]TLD [peptide 15, monophosphorylated APN 9-mer pThr63 (site 2)], in [6], binding was put at a Kd of 45 µM. This counts as double-digit micromolar.

In experiment [2], B5 returned a Kd of more than 167 µM.

Turning to TTNPASATT (also: one phosphorylated Ser/Thr within Ser61–Thr64) [peptide 14, monophosphorylated APN 9-mer (noncanonical site of peptide 10)], the Kd in experiment [5] was 70 µM; in experiment [6] it was more than 167 µM.

For {FITC-PEG2′}-EKNKNAN[pS]SPVASTTPSASATTNPASATTLDQSKAWNR (also: second phosphorylated Ser/Thr, site not given here) [fluorescently labeled peptide 8, APN 36–73, bis-phosphorylated], the Kd is 18 µM in experiment [5], more than 167 µM in experiment [3], 18 µM in experiment [17] and 32 µM in [4].
